From publication PMC12416549 (2024) come the findings set out here.

The chains are these.
T1: TNFR1 (Homo sapiens, UniProt P19438)
T1 chain: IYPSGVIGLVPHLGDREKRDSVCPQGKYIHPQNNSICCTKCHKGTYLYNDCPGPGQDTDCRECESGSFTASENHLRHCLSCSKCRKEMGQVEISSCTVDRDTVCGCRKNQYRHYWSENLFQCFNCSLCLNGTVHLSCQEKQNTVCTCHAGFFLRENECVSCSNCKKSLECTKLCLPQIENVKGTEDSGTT

B1: K17V (designed binder)
chain: SMEEEVEKAAKEYEKKVKEAIEKHLEKLKAKDKEAAERFLKELEEAAKEYAKDEAKTMSEEEAKRRAKKYKEKVLLSELSEEEQKEIKEAEEKLVRTILKYVEEAAK
B2: K64P (designed binder)
chain: SMEEEVEKAAKEYEKKKKEAIEKHLEKLKAKDKEAAERFLKELEEAAKEYAKDEAKTMSEEEAPRRAKKYKEKVLLSELSEEEQKEIKEAEEKLVRTILKYVEEAAK
B3: I87Y (designed binder)
chain: SMEEEVEKAAKEYEKKKKEAIEKHLEKLKAKDKEAAERFLKELEEAAKEYAKDEAKTMSEEEAKRRAKKYKEKVLLSELSEEEQKEYKEAEEKLVRTILKYVEEAAK
B4: K27E (designed binder)
chain: SMEEEVEKAAKEYEKKKKEAIEKHLEELKAKDKEAAERFLKELEEAAKEYAKDEAKTMSEEEAKRRAKKYKEKVLLSELSEEEQKEIKEAEEKLVRTILKYVEEAAK
B5: E104D (designed binder)
chain: SMEEEVEKAAKEYEKKKKEAIEKHLEKLKAKDKEAAERFLKELEEAAKEYAKDEAKTMSEEEAKRRAKKYKEKVLLSELSEEEQKEIKEAEEKLVRTILKYVEDAAK
B6: A36E (designed binder)
chain: SMEEEVEKAAKEYEKKKKEAIEKHLEKLKAKDKEAEERFLKELEEAAKEYAKDEAKTMSEEEAKRRAKKYKEKVLLSELSEEEQKEIKEAEEKLVRTILKYVEEAAK
B7: A67V (designed binder)
chain: SMEEEVEKAAKEYEKKKKEAIEKHLEKLKAKDKEAAERFLKELEEAAKEYAKDEAKTMSEEEAKRRVKKYKEKVLLSELSEEEQKEIKEAEEKLVRTILKYVEEAAK
B8: M2H (designed binder)
chain: SHEEEVEKAAKEYEKKKKEAIEKHLEKLKAKDKEAAERFLKELEEAAKEYAKDEAKTMSEEEAKRRAKKYKEKVLLSELSEEEQKEIKEAEEKLVRTILKYVEEAAK
B9: A106M (designed binder)
chain: SMEEEVEKAAKEYEKKKKEAIEKHLEKLKAKDKEAAERFLKELEEAAKEYAKDEAKTMSEEEAKRRAKKYKEKVLLSELSEEEQKEIKEAEEKLVRTILKYVEEAMK
B10: E3F (designed binder)
chain: SMFEEVEKAAKEYEKKKKEAIEKHLEKLKAKDKEAAERFLKELEEAAKEYAKDEAKTMSEEEAKRRAKKYKEKVLLSELSEEEQKEIKEAEEKLVRTILKYVEEAAK
B11: E86G (designed binder)
chain: SMEEEVEKAAKEYEKKKKEAIEKHLEKLKAKDKEAAERFLKELEEAAKEYAKDEAKTMSEEEAKRRAKKYKEKVLLSELSEEEQKGIKEAEEKLVRTILKYVEEAAK
B12: L40I (designed binder)
chain: SMEEEVEKAAKEYEKKKKEAIEKHLEKLKAKDKEAAERFIKELEEAAKEYAKDEAKTMSEEEAKRRAKKYKEKVLLSELSEEEQKEIKEAEEKLVRTILKYVEEAAK
B13: A36L (designed binder)
chain: SMEEEVEKAAKEYEKKKKEAIEKHLEKLKAKDKEALERFLKELEEAAKEYAKDEAKTMSEEEAKRRAKKYKEKVLLSELSEEEQKEIKEAEEKLVRTILKYVEEAAK
B14: A55C (designed binder)
chain: SMEEEVEKAAKEYEKKKKEAIEKHLEKLKAKDKEAAERFLKELEEAAKEYAKDECKTMSEEEAKRRAKKYKEKVLLSELSEEEQKEIKEAEEKLVRTILKYVEEAAK
B15: E78G (designed binder)
chain: SMEEEVEKAAKEYEKKKKEAIEKHLEKLKAKDKEAAERFLKELEEAAKEYAKDEAKTMSEEEAKRRAKKYKEKVLLSGLSEEEQKEIKEAEEKLVRTILKYVEEAAK
B16: E34Q (designed binder)
chain: SMEEEVEKAAKEYEKKKKEAIEKHLEKLKAKDKQAAERFLKELEEAAKEYAKDEAKTMSEEEAKRRAKKYKEKVLLSELSEEEQKEIKEAEEKLVRTILKYVEEAAK
B17: E49A (designed binder)
chain: SMEEEVEKAAKEYEKKKKEAIEKHLEKLKAKDKEAAERFLKELEEAAKAYAKDEAKTMSEEEAKRRAKKYKEKVLLSELSEEEQKEIKEAEEKLVRTILKYVEEAAK
B18: E44F (designed binder)
chain: SMEEEVEKAAKEYEKKKKEAIEKHLEKLKAKDKEAAERFLKELFEAAKEYAKDEAKTMSEEEAKRRAKKYKEKVLLSELSEEEQKEIKEAEEKLVRTILKYVEEAAK
B19: L99M (designed binder)
chain: SMEEEVEKAAKEYEKKKKEAIEKHLEKLKAKDKEAAERFLKELEEAAKEYAKDEAKTMSEEEAKRRAKKYKEKVLLSELSEEEQKEIKEAEEKLVRTIMKYVEEAAK
B20: A106N (designed binder)
chain: SMEEEVEKAAKEYEKKKKEAIEKHLEKLKAKDKEAAERFLKELEEAAKEYAKDEAKTMSEEEAKRRAKKYKEKVLLSELSEEEQKEIKEAEEKLVRTILKYVEEANK
B21: K56L (designed binder)
chain: SMEEEVEKAAKEYEKKKKEAIEKHLEKLKAKDKEAAERFLKELEEAAKEYAKDEALTMSEEEAKRRAKKYKEKVLLSELSEEEQKEIKEAEEKLVRTILKYVEEAAK
B22: E26D (designed binder)
chain: SMEEEVEKAAKEYEKKKKEAIEKHLDKLKAKDKEAAERFLKELEEAAKEYAKDEAKTMSEEEAKRRAKKYKEKVLLSELSEEEQKEIKEAEEKLVRTILKYVEEAAK
B23: K48Q (designed binder)
chain: SMEEEVEKAAKEYEKKKKEAIEKHLEKLKAKDKEAAERFLKELEEAAQEYAKDEAKTMSEEEAKRRAKKYKEKVLLSELSEEEQKEIKEAEEKLVRTILKYVEEAAK
B24: F39E (designed binder)
chain: SMEEEVEKAAKEYEKKKKEAIEKHLEKLKAKDKEAAERELKELEEAAKEYAKDEAKTMSEEEAKRRAKKYKEKVLLSELSEEEQKEIKEAEEKLVRTILKYVEEAAK
B25: K68D (designed binder)
chain: SMEEEVEKAAKEYEKKKKEAIEKHLEKLKAKDKEAAERFLKELEEAAKEYAKDEAKTMSEEEAKRRADKYKEKVLLSELSEEEQKEIKEAEEKLVRTILKYVEEAAK
B26: T97P (designed binder)
chain: SMEEEVEKAAKEYEKKKKEAIEKHLEKLKAKDKEAAERFLKELEEAAKEYAKDEAKTMSEEEAKRRAKKYKEKVLLSELSEEEQKEIKEAEEKLVRPILKYVEEAAK
B27: E92K (designed binder)
chain: SMEEEVEKAAKEYEKKKKEAIEKHLEKLKAKDKEAAERFLKELEEAAKEYAKDEAKTMSEEEAKRRAKKYKEKVLLSELSEEEQKEIKEAEKKLVRTILKYVEEAAK
B28: E37I (designed binder)
chain: SMEEEVEKAAKEYEKKKKEAIEKHLEKLKAKDKEAAIRFLKELEEAAKEYAKDEAKTMSEEEAKRRAKKYKEKVLLSELSEEEQKEIKEAEEKLVRTILKYVEEAAK
B29: V102T (designed binder)
chain: SMEEEVEKAAKEYEKKKKEAIEKHLEKLKAKDKEAAERFLKELEEAAKEYAKDEAKTMSEEEAKRRAKKYKEKVLLSELSEEEQKEIKEAEEKLVRTILKYTEEAAK
B30: A20C (designed binder)
chain: SMEEEVEKAAKEYEKKKKECIEKHLEKLKAKDKEAAERFLKELEEAAKEYAKDEAKTMSEEEAKRRAKKYKEKVLLSELSEEEQKEIKEAEEKLVRTILKYVEEAAK
B31: D32L (designed binder)
chain: SMEEEVEKAAKEYEKKKKEAIEKHLEKLKAKLKEAAERFLKELEEAAKEYAKDEAKTMSEEEAKRRAKKYKEKVLLSELSEEEQKEIKEAEEKLVRTILKYVEEAAK
B32: A30C (designed binder)
chain: SMEEEVEKAAKEYEKKKKEAIEKHLEKLKCKDKEAAERFLKELEEAAKEYAKDEAKTMSEEEAKRRAKKYKEKVLLSELSEEEQKEIKEAEEKLVRTILKYVEEAAK
B33: V74P (designed binder)
chain: SMEEEVEKAAKEYEKKKKEAIEKHLEKLKAKDKEAAERFLKELEEAAKEYAKDEAKTMSEEEAKRRAKKYKEKPLLSELSEEEQKEIKEAEEKLVRTILKYVEEAAK

The assay concerns the target T1, TNFR1. In words: yeast display SC50.
Turning to B1, the “apparent Kd (screen)” value is 0.539 nM. Take B2: the “apparent Kd (screen)” value was 2.73 nM.

As for B3, the “apparent Kd (screen)” value was 12.5 nM. For B4, the “apparent Kd (screen)” value was 0.956 nM.

For the molecule B5, the “apparent Kd (screen)” value stood at 0.956 nM. For B6, the “apparent Kd (screen)” value was 0.446 nM.

Consider B7, for which the “apparent Kd (screen)” value stood at 7.78 nM. Regarding B8, the “apparent Kd (screen)” value worked out at 0.49 nM. B9: the “apparent Kd (screen)” value turned out to be 3.99 nM.

Turning to B10, the “apparent Kd (screen)” value was determined as 20.2 nM. With B11, the “apparent Kd (screen)” value was 1.16 nM. To B12 belongs 0.79 nM; to B13, 1.05 nM. To B14 belongs 11.4 nM; to B15, 3 nM; to B16, 0.446 nM. For the molecule B17, the “apparent Kd (screen)” value turned out to be 2.73 nM.

Consider B18, for which the “apparent Kd (screen)” value was determined as 1.69 nM.

B19: the “apparent Kd (screen)” value was found to be 3 nM. On to B20, for which the “apparent Kd (screen)” value was found to be 1.05 nM. To B21 belongs 1.05 nM; to B22, 0.446 nM.

As to B23, the “apparent Kd (screen)” value turned out to be 0.446 nM.

Consider B24, for which the “apparent Kd (screen)” value was 4.83 nM. For the molecule B25, the “apparent Kd (screen)” value came out at 1.27 nM. Turning to B26, the “apparent Kd (screen)” value amounted to 7.07 nM.

With B27, the “apparent Kd (screen)” value was found to be 12.5 nM. In the case of B28, the “apparent Kd (screen)” value was found to be 0.956 nM. Take B29: the “apparent Kd (screen)” value worked out at 0.446 nM.

B30: the “apparent Kd (screen)” value came to 0.718 nM. For the molecule B31, the “apparent Kd (screen)” value was found to be 2.73 nM. B32: the “apparent Kd (screen)” value was 0.869 nM.

On to B33, for which the “apparent Kd (screen)” value was 0.446 nM.
